Sequences and labels used below:
T1: human CD19 (human, UniProt P15391 20-556)
T1 construct: also called B-cell surface antigen B4; B-cell antigen CD19
T1 sequence: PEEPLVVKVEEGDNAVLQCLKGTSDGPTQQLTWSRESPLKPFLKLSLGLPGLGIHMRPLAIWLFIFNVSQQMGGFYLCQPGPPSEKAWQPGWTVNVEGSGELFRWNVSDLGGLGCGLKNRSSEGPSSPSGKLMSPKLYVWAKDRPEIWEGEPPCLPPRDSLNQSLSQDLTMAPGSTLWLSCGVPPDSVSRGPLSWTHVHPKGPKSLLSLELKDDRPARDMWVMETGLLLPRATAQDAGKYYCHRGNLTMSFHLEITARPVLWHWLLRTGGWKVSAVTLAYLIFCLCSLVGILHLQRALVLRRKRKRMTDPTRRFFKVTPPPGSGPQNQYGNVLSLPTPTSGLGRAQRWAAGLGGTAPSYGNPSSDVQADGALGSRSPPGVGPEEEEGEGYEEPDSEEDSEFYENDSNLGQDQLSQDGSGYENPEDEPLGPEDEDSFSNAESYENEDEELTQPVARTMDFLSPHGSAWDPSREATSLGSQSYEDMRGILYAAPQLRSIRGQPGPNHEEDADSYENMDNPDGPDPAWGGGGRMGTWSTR

B1: H3L2 (antibody, V domains shown)
VH: EVQLVESGGGLVQPGRSLRLSCAASGYTFTSYVMHWVRQMPGKGLEWMGYINPYNDGTKYNEKFQGRVTITSDKSTSTAYMELSRLRSDDTAVYYCARGTYYYGSRVFDYWGQGTLVTVSS
VL: DIVMTQSPSSLSASVGDRVTISCRSSKSLLNSNGNTYLYWFQQKPGQSPQLLIYRMSNLASGVPDRFSGSGSGTEFTLTISSLQPEDVAVYYCMQHLEYPFTFGAGTKLEIK
notes: also called 4G7 H3L2
B2: H2L3 (antibody, V domains shown)
VH: QVQLQESGSGLVKPGGSLRLSCAASGYTFTSYVMHWVRQAPGKGLEWMGYINPYNDGTKYNESLKSRVTISSDKSISTAYMELSSLRAEDTAVYYCARGTYYYGSRVFDYWGQGTLVTVSS
VL: DIVMTQSPATLSVSPGERATISCRSSKSLLNSNGNTYLYWFLQKPGQSPQLLIYRMSNLASGVPDRFSGSGSGTDFTLTISRVEAEDVGVYYCMQHLEYPFTFGAGTKLEIK
notes: also called 4G7 H2L3
B3: H0L0 (antibody)
heavy chain: EVQLQQSGPELIKPGASVKMSCKASGYTFTSYVMHWVKQKPGQGLEWIGYINPYNDGTKYNEKFKGKATLTSDKSSSTAYMELSSLTSEDSAVYYCARGTYYYGSRVFDYWGQGTTLTVSS
light chain: DIVMTQAAPSIPVTPGESVSISCRSSKSLLNSNGNTYLYWFLQRPGQSPQLLIYRMSNLASGVPDRFSGSGSGTAFTLRISRVEAEDVGVYYCMQHLEYPFTFGAGTKLELK
notes: original 4G7 variable regions; also called 4G7 H0L0
B4: H4L0 (antibody, V domains shown)
VH: EVQLQQSGPEVKKPGTSVKVSCKASGYTFTSYVMHWVRQAPGKGLVWVSYINPYNDGTKYNESLKSRVTISSDKSISTAYLQMNSLRAEDTAVYYCARGTYYYGSRVFDYWGQGTLVTVSS
VL: B3 light chain
notes: also called 4G7 H4L0
B5: H1L3 (antibody, V domains shown)
VH: B1 VH with Q13K, R16G, R19K, M40A, M48I, T71S, T76I, R85S, D89E, V93M
VL: B2 VL
notes: also called 4G7 H1L3
B6: H3L3 (antibody, V domains shown)
VH: B1 VH
VL: B2 VL
notes: also called 4G7 H3L3
B7: H4L3 (antibody, V domains shown)
VH: B4 VH
VL: B2 VL
notes: also called 4G7 H4L3
B8: H1.203 / L1.162 (antibody, V domains shown)
VH: EVQLVESGGGLVKPGGSLKLSCAASGYTFTSYVMHWVRQAPGKGLEWIGYINPYNSGTEYNEKFQGRVTISSDKSISTAYMELSSLRSEDTAMYYCARGTYYYGTRVFDYWGQGTLVTVSS
VL: DIVMTQSPATLSLSPGERATLSCRSSKSLQNANANTYLYWFQQKPGQSPQLLIYRMSNLNSGVPDRFSGSGSGTEFTLTISSLEPEDFAVYYCMQHLEYPITFGAGTKLEIK
notes: vs H1L1 (Kabat): VH D55S/K58E/S100cT; VL L27cQ/S27eA/G29A/A55N/F96I; also called 4G7 H1.203_L1.162
B9: H1.203 / L1.164 (antibody, V domains shown)
VH: B8 VH
VL: B8 VL with A34G
notes: vs H1L1 (Kabat): VH D55S/K58E/S100cT; VL L27cQ/S27eA/A55N/F96I; also called 4G7 H1.203_L1.164
B10: H1.204 / L1.163 (antibody, V domains shown)
VH: B8 VH with S56E
VL: B8 VL with A34S
notes: vs H1L1 (Kabat): VH D55E/K58E/S100cT; VL L27cQ/S27eA/G29S/A55N/F96I; also called 4G7 H1.204_L1.163
B11: H1.203 / L1.163 (antibody, V domains shown)
VH: B8 VH
VL: B8 VL with A34S
notes: vs H1L1 (Kabat): VH D55S/K58E/S100cT; VL L27cQ/S27eA/G29S/A55N/F96I; also called 4G7 H1.203_L1.163
B12: H1.204 / L1.161 (antibody, V domains shown)
VH: B8 VH with S56E
VL: B8 VL with A32V, A34S
notes: vs H1L1 (Kabat): VH D55E/K58E/S100cT; VL L27cQ/S27eV/G29S/A55N/F96I; also called 4G7 H1.204_L1.161
B13: H1.204 / L1.162 (antibody, V domains shown)
VH: B8 VH with S56E
VL: B8 VL
notes: vs H1L1 (Kabat): VH D55E/K58E/S100cT; VL L27cQ/S27eA/G29A/A55N/F96I; also called 4G7 H1.204_L1.162
B14: H2L2 (antibody, V domains shown)
VH: B2 VH
VL: B1 VL
notes: also called 4G7 H2L2
B15: H1L0 (antibody, V domains shown)
VH: B8 VH with S56D, E59K, T105S
VL: B3 light chain
notes: also called 4G7 H1L0
B16: H0L1 (antibody, V domains shown)
VH: B3 heavy chain
VL: B8 VL with Q30L, A32S, A34G, N60A, I101F
notes: also called 4G7 H0L1
B17: H2L0 (antibody, V domains shown)
VH: B2 VH
VL: B3 light chain
notes: also called 4G7 H2L0
B18: H3L0 (antibody, V domains shown)
VH: B1 VH
VL: B3 light chain
notes: also called 4G7 H3L0
B19: H0L2 (antibody, V domains shown)
VH: B3 heavy chain
VL: B1 VL
notes: also called 4G7 H0L2
B20: H0L3 (antibody, V domains shown)
VH: B3 heavy chain
VL: B2 VL
notes: also called 4G7 H0L3
B21: H1L2 (antibody, V domains shown)
VH: B8 VH with S56D, E59K, T105S
VL: B1 VL
notes: also called 4G7 H1L2
B22: H3L1 (antibody, V domains shown)
VH: B1 VH
VL: B8 VL with Q30L, A32S, A34G, N60A, I101F
notes: also called 4G7 H3L1
B23: H2L1 (antibody, V domains shown)
VH: B2 VH
VL: B8 VL with Q30L, A32S, A34G, N60A, I101F
notes: also called 4G7 H2L1

Where a chain is given by its changes, count along the chain named. Names may count otherwise.

The first assay addresses T1, human CD19. The experiment in a line: DELFIA competition on Raji cells: unlabeled antibody competes with Eu-labeled anti-CD19 for surface CD19 [lower panel].
Regarding B1, the “IC50 (read off the curve)” value is approximately 10 nM.

Consider B2, for which the binding result is reported as “binds”.

B3: the “IC50 (read off the curve)” value is approximately 8 nM.

Take B4: the “IC50 (read off the curve)” value is approximately 10 nM.

Take B5: the “IC50 (read off the curve)” value is approximately 20 nM.

In the case of B6, the “IC50 (read off the curve)” value is approximately 20 nM.

Turning to B7, the binding result is recorded as “binds”.

In a further assay the target is T1, human CD19. The experiment in a line: binding affinity relative to the parent H1L1 mAb (Example 5); assay and format not named on the sheet.
As to B8, the Fold change binding turned out to be 3.25 fold.

For B9, the Fold change binding amounted to 5.58 fold.

As to B10, the Fold change binding was found to be 4.73 fold.

As for B11, the Fold change binding stood at 3.2 fold.

Regarding B12, the Fold change binding came out at 3.27 fold.

As to B13, the Fold change binding turned out to be 4.07 fold.

The target of the next assay is T1, human CD19. The experiment in a line: DELFIA competition on Raji cells: unlabeled antibody competes with Eu-labeled anti-CD19 for surface CD19 [upper panel].
B14: the binding result is recorded as “binds”.

For the molecule B3, the “IC50 (read off the curve)” value is approximately 5 nM.

As for B15, the “IC50 (read off the curve)” value is approximately 20 nM.

B16: the “IC50 (read off the curve)” value was approximately 3 nM.

On to B17, for which the binding result is “binds”.

B18: the binding result was “binds”.

Consider B19, for which the “IC50 (read off the curve)” value is approximately 2 nM.

For B20, the “IC50 (read off the curve)” value was approximately 3 nM.

For B21, the binding result is “binds”.

Take B22: the binding result is on record as “binds”.

As for B23, the binding result is “binds”.
